The values that follow come from article PMC5686206.

Substrate in this assay: T1, OCP lacking the NTE comprising the first 20 amino acids (ΔNTE), 6xHis-tagged (Synechocystis sp. PCC 6803) (UniProt P74102)
T1 sequence: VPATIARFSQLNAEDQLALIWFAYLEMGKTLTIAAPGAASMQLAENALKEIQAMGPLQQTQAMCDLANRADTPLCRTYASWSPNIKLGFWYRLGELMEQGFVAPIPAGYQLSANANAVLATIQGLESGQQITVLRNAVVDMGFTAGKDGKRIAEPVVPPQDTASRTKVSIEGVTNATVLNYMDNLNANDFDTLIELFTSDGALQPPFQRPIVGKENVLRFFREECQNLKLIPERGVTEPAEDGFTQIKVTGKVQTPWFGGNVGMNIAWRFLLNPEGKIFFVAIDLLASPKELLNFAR

B1: Fluorescence Recovery Protein (FRP), 6xHis-tagged (natural protein)
chain: MLQTAEAPWSQAETQSAHALFRKAYQRELDGLLATVQAQASQITQIDDLWKLHDFLSAKRHEIDGKYDDRQSVIIFVFAQLLKEGLVQAEELTFLAADKQSKIKALARL
On to B1, for which the amplitude a3 (yield) of the slow component (C3) of flash-induced absorption transients at 550 nm, ΔNTE OCP + FRP (FRP to ΔNTE OCP ratio 1.6), 36 °C amounted to 76% and the time constant t1 of the fast component (C1) of flash-induced absorption transients at 550 nm, ΔNTE OCP + FRP (FRP to ΔNTE OCP ratio 1.6), 36 °C came out at 70.4 µs.
